Kd, koff and kon data for two molecules are collected here from article PMC8092709 (Journal of Virology, 2021).

The target in the experiment is human aminopeptidase N (hAPN), residues 66 to 967 (human, UniProt P15144 66-967). As to the kind of experiment: SPR.
human aminopeptidase N (hAPN), residues 66 to 967, sequence (P15144 66-967): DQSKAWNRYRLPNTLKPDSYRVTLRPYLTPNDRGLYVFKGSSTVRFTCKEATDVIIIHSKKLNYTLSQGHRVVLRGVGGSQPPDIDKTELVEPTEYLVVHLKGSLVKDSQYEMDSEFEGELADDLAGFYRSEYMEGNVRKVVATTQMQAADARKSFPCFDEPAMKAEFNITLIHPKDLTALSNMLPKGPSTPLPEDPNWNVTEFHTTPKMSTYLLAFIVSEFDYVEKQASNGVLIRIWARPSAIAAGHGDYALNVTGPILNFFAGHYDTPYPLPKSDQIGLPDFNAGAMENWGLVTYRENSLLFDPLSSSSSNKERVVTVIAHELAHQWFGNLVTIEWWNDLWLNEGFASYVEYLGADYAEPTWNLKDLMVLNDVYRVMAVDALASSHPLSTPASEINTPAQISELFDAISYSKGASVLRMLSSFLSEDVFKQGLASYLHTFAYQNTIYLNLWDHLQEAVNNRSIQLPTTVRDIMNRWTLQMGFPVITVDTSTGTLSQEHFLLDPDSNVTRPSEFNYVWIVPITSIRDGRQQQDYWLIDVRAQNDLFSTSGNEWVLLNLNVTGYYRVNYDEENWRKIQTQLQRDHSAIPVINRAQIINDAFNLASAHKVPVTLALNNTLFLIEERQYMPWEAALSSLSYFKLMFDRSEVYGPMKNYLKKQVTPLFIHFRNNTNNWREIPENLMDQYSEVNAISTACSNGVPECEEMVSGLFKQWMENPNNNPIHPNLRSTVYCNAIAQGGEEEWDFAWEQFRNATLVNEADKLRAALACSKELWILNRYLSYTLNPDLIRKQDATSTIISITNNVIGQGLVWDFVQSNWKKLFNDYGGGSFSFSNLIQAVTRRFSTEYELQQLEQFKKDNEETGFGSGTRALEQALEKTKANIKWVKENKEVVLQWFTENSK

B1: HCoV-229E S1-RBD (residues 295 to 428) with C-terminal Fc tag (Fc fusion)
chain: VYHKHTFIVLYVDFKPQSGGGKCFNCYPAGVNITLANFNETKGPLCVDTSHFTTKYVAVYANVGRWSASINTGNCPFSFGKVNNFVKFGSVCFSLKDIPGGCAMPIVANWAYSKYYTIGSLYVSWSDGDGITGV
B1 yielded an equilibrium dissociation constant (Kd) of 36 nM, an off-rate constant (koff) of 0.00115 s⁻¹ and a kon of 32000 M⁻¹ s⁻¹.

B2: HCoV-229E S1 (residues 1 to 536) with C-terminal Fc tag (Fc fusion)
chain: CQTTNGLNTSYSVCNGCVGYSENVFAVESGGYIPSDFAFNNWFLLTNTSSVVDGVVRSFQPLLLNCLWSVSGLRFTTGFVYFNGTGRGDCKGFSSDVLSDVIRYNLNFEENLRRGTILFKTSYGVVVFYCTNNTLVSGDAHIPFGTVLGNFYCFVNTTIGNETTSAFVGALPKTVREFVISRTGHFYINGYRYFTLGNVEAVNFNVTTAETTDFCTVALASYADVLVNVSQTSIANIIYCNSVINRLRCDQLSFDVPDGFYSTSPIQSVELPVSIVSLPVYHKHTFIVLYVDFKPQSGGGKCFNCYPAGVNITLANFNETKGPLCVDTSHFTTKYVAVYANVGRWSASINTGNCPFSFGKVNNFVKFGSVCFSLKDIPGGCAMPIVANWAYSKYYTIGSLYVSWSDGDGITGVPQPVEGVSSFMNVTLDKCTKYNIYDVSGVGVIRVSNDTFLNGITYTSTSGNLLGFKDVTKGTIYSITPCNPPDQLVVYQQAVVGAMLSENFTSYGFSNVVELPKFFYA
Take B2: the Kd worked out at 255 nM, the koff came out at 0.000226 s⁻¹ and the kon turned out to be 886 M⁻¹ s⁻¹.
